The target of this data set is T1, dCREB2-a (Drosophila melanogaster) (UniProt Q9VWW0).
T1 sequence: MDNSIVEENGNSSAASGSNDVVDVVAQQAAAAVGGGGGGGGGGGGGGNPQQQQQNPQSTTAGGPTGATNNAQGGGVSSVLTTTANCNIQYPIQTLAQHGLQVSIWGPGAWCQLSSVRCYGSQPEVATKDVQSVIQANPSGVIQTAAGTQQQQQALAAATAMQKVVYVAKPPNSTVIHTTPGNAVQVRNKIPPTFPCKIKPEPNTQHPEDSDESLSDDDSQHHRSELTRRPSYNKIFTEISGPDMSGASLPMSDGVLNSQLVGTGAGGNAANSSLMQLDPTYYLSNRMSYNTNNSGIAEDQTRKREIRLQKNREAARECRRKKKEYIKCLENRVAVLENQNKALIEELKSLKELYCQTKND
Put plainly: cell_activity. The settings on record: F9 cells, with PKA versus PKA alone.

Consider D(-71) CAT reporter CRE fragment, for which the activity worked out at 5.4 fold.

Values taken from patent US6051559.
